# Measured values: patent publication US20120039904A1 (Kyowa Kirin, published 2012)
# T1: human ASCT2-myc/His (fusion protein in which myc/His was added to the C-terminal of human ASCT2), expressed … (human, UniProt Q15758 1-541)
# T1 construct: Amino acid transporter with C-terminal myc/His tag, stably expressed in CHO/DG44 cells; cell lysates of these cells were used for Western blotting and immunoprecipitation; also called ASCT2/CHO; human ASCT2-myc/His gene-introduced CHO cell
# T1 sequence: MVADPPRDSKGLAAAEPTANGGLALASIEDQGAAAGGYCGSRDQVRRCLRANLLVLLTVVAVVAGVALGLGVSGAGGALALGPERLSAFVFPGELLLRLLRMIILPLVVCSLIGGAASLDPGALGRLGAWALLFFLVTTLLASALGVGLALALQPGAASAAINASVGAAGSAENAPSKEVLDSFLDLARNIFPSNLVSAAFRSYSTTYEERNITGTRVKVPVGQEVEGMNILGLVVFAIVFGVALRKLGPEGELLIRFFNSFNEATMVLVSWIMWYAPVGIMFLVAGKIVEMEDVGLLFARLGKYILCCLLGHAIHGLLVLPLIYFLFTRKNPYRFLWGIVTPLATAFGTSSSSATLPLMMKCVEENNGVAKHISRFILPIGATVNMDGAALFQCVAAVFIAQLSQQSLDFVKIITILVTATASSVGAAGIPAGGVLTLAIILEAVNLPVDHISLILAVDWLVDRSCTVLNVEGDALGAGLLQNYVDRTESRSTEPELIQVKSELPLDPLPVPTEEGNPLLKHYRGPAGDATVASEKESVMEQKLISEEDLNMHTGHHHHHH
# T2: human ASCT2 (system ASC amino acid transporter 2), endogenous on human tumour cell lines (human, UniProt Q15758 1-541)
# T2 construct: Endogenous ASCT2 of cell lines KMS-11 (stated to express ASCT2 mRNA), WiDr and OPM-2; also called SLC1A5; ASCT2 on KMS-11, OPM-2, WiDr cells
# T2 sequence: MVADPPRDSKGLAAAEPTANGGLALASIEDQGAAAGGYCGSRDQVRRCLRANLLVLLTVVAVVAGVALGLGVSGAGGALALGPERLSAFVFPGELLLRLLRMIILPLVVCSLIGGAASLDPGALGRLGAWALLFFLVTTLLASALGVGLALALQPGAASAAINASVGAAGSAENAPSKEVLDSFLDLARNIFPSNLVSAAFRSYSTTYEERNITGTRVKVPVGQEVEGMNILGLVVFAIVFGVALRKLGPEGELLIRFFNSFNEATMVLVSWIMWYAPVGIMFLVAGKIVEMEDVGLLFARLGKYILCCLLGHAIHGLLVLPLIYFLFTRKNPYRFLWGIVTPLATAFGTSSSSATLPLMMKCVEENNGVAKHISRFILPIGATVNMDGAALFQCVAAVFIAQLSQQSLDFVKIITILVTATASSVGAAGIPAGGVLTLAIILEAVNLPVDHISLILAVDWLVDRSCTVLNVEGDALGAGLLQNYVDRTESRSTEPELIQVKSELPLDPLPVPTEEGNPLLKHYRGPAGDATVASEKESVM
# T3: mouse EL4 type ASCT2-myc/His (mouse/human chimeric ASCT2), expressed on CHO cells (human/mouse chimera, UniProt Q15758 1-541)
# T3 construct: also called mEL4/CHO; mEL4
# T3 sequence: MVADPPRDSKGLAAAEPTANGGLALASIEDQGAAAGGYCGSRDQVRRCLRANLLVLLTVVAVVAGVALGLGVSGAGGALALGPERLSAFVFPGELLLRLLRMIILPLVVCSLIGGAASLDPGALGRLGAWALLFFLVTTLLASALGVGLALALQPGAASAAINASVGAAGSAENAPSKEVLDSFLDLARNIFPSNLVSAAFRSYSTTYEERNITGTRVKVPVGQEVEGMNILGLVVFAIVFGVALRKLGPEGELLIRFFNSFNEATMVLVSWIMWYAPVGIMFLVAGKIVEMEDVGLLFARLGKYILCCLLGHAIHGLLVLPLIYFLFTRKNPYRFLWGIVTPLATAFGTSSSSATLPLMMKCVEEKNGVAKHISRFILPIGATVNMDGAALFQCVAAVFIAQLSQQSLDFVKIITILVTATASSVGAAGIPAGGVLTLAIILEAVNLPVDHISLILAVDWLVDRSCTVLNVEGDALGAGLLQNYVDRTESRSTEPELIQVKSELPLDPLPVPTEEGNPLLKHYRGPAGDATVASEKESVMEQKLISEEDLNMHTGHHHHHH
# Legend:
# [1] = target: T1, human ASCT2-myc/His (fusion protein in …); test: flow cytometry on human ASCT2-myc/His gene-introduced CHO cells
# [2] = target: T2, human ASCT2 (system ASC amino acid …); test: flow cytometry on OPM-2 cells
# Procedure: Each of the human ASCT2-myc/His gene-introduced CHO cell obtained in Example 2, and the multiple myeloma cell line OPM-2 (DSMZ Accession No. ACC50) was cultured in a 5% CO₂ incubator for 3 to 4 days at 37° C. The human ASCT2-myc/His gene-introduced CHO cells were detached with a 0.02% EDTA solution (manufactured by Nacalai Tesque), and in order to avoid the non-specific adsorption of antibodies, the cells were blocked for 30 minutes at ice temperature using 1% BSA-PBS.
# The cells were seeded into a 96-well U-bottom plate so as to give a density of 1×10⁵ to 5×10⁵ cells/100 μL/well. The plates were centrifugation at 1,500 rpm for 5 minutes (05PR-22, manufactured by Hitachi Koki), and then the supernatant was removed.
# As the primary antibody, the purified antibody which was a test substance was diluted to give a final concentration of 0.01 μg/mL to 10 μg/mL in 1% BSA-PBS, and dispensed to the plate at 100 μL/well, followed by reaction at ice temperature for 60 minutes. After washing the cells with 1% BSA-PBS, FITC-labeled anti-human immunoglobulin G (H+L) (manufactured by Jackson Laboratories) diluted with 1% BSA-PBS was added as the secondary antibody, followed by reaction at ice temperature for 30 minutes protected from light. The cells were washed with 1% BSA-PBS and then suspended in PBS. The fluorescence intensity of the cells was measured by a flow cytometer (Cytomics FC500 MPL, manufactured by Beckman Coulter).
# [3] = target: T2, human ASCT2 (system ASC amino acid …); test: flow cytometry on KMS-11 cells
# [4] = target: T1, human ASCT2-myc/His (fusion protein in …); test: flow cytometry on human ASCT2/CHO cells; '+' = presence of reactivity
# [5] = target: T3, mouse EL4 type ASCT2-myc/His …; test: flow cytometry on mEL4/CHO cells; '+' = presence of reactivity
# Procedure: Using the mouse ASCT2/CHO and mouse/human chimeric ASCT2/CHO cells constructed in Examples 10 and 11 and FITC-labeled anti-mouse immunoglobulin G (H+L) (manufactured by Dako) or ALEXA488-labeled anti-rat immunoglobulin G […] (manufactured by Invitrogen) as the secondary antibody, the reactivity of anti-ASCT2 monoclonal antibodies KM4008, KM4012 and KM4018 was measured in the same manner as in Example 9(1).
# In Table 2, the symbols “+”, “−”, and “±” represent the presence of reactivity, the absence of reactivity, and the decrease in reactivity, respectively.
Binder,binding result [1],binding result [2],binding result [3],binding result [4],binding result [5]
"anti-ASCT2 human chimeric antibody cKM4018 (antibody, V domains shown, VH and VL of KM4018 joined to human CH and CL of vector pKANTEX93; IgG class) VH: EVQLVESGGGLVQSGRSIRLSCAASGFSFSNYYMAWVRQAPSKGLEWVASITKGGGNTYYRDSVKGRFTFSRDNAKSTLYLQMDSLRSEDTATYYCARQVTIAAVSTSYFDSWGQGVMVTVSS VL: DIVLTQSPALAVSLGQRATISCKTNQKVDYYGNSYVYWYQQKPGQQPKLLIYLASNLASGIPARFSGRGSGTDFTLTIDPVEADDTATYYCQQSRNLPYTFGAGTKLELKR",binds,binds,–,–,–
"anti-ASCT2 humanized antibody KM4008HV2LV3 (antibody, V domains shown, Expressed from vector pKANTEX93 with human CH and CL; SDS-PAGE pattern of an IgG class antibody) VH: QVQLVQSGSELKKPGAPVKVSCKASGYTFSTFGMSWVRQAPGQGLKWMGWIHTYAGVPIYGDDFKGRFVFSLDTSVSTAYLQISSLKAEDTAVYFCARRSDNYRYFFDYWGQGTTVTVSS VL: DIQMTQSPSSLSASLGDRVTITCRASQDIRNYLNWYQQKPGKAPKLLIYYTSRLHSGVPSRFSGSGSGTDYTLTISSLQPEDFATYFCQQGHTLPPTFGQGTKLEIK",binds,–,binds,–,–
"anti-ASCT2 humanized antibody KM4008HV10LV3 (antibody, V domains shown, Expressed from vector pKANTEX93 with human CH and CL; SDS-PAGE pattern of an IgG class antibody) VH: QIQLVQSGPELKKPGAPVKISCKASGYTFTTFGMSWVKQAPGQGLKWMGWIHTYAGVPIYGDDFKGRFVFSLDTSVSTAYLQISSVKAEDTATYFCARRSDNYRYFFDYWGQGTTLTVSS VL: DIQMTQSPSSLSASLGDRVTITCRASQDIRNYLNWYQQKPGKAPKLLIYYTSRLHSGVPSRFSGSGSGTDYTLTISSLQPEDFATYFCQQGHTLPPTFGQGTKLEIK",binds,–,binds,–,–
"anti-ASCT2 monoclonal antibody KM4008 (antibody, V domains shown, mouse IgG3, kappa (amplified with a mouse Ig kappa primer)) VH: QIQLVQSGPELKKPGETVKISCKASGYTFTTFGMSWVKQVPGKGLKWMGWIHTYAGVPIYGDDFKGRFAFSLETSASTAYLQINNVKNEDTATYFCARRSDNYRYFFDYWGQGTTLTVSS VL: DIQMTQTTSSLSASLGDRVTISCRASQDIRNYLNWYQRKPHGTVKLLIYYTSRLHSGVPSRFSGSGSGTDYSLTISNLEQEDIATYFCQQGHTLPPTFGGGTKLEIKR",–,–,binds,binds,binds
"anti-ASCT2 human chimeric antibody cKM4008 (antibody, V domains shown, VH and VL of KM4008 joined to human CH and CL of vector pKANTEX93; SDS-PAGE pattern of the IgG class) VH: QIQLVQSGPELKKPGETVKISCKASGYTFTTFGMSWVKQVPGKGLKWMGWIHTYAGVPIYGDDFKGRFAFSLETSASTAYLQINNVKNEDTATYFCARRSDNYRYFFDYWGQGTTLTVSS VL: DIQMTQTTSSLSASLGDRVTISCRASQDIRNYLNWYQRKPHGTVKLLIYYTSRLHSGVPSRFSGSGSGTDYSLTISNLEQEDIATYFCQQGHTLPPTFGGGTKLEIKR",binds,binds,–,–,–

# Second part, the binder after the results:
binding result [1],binding result [2],binding result [3],binding result [4],binding result [5],Binder
–,–,binds,binds,binds,"anti-ASCT2 monoclonal antibody KM4012 (antibody, mouse IgG2b, V domains shown, mouse IgG2b, kappa) VH: QIQLVQSGPELKKPGETVKISCKASGYTFTTYGMSWVKQTPGKGLKWMGWIHTYSGVPIYGDDSKGRFAFSLETSGSIAYLQINNVKNEDTATYFCARRSDGYRYFFDYWGQGTTLTVSS VL: DIQMTQITSSLSASLGDRVTISCRASQDIRNYLNWYQQKPDGTVKLLIYYTSRLHSGVPSRFSGSGSGTDYSLTISNLEQEDIATYFCQQGNTLPPTFGGGTKLEIKR"
binds,binds,–,–,–,"anti-ASCT2 human chimeric antibody cKM4012 (antibody, V domains shown, VH and VL of KM4012 joined to human CH and CL of vector pKANTEX93; IgG class) VH: QIQLVQSGPELKKPGETVKISCKASGYTFTTYGMSWVKQTPGKGLKWMGWIHTYSGVPIYGDDSKGRFAFSLETSGSIAYLQINNVKNEDTATYFCARRSDGYRYFFDYWGQGTTLTVSS VL: DIQMTQITSSLSASLGDRVTISCRASQDIRNYLNWYQQKPDGTVKLLIYYTSRLHSGVPSRFSGSGSGTDYSLTISNLEQEDIATYFCQQGNTLPPTFGGGTKLEIKR"
